To fix the notation:
B1: OC9 with H5 replaced with D-alanine (peptide)
chain: YYLT[dA]PYPSVFRTC
modifications: ends and bridges not checked
B2: KDM7B (PHF8, JHDM1F) dual domain (PHD-JmjC) (domain or fragment)
chain: MASVPVYCLCRLPYDVTRFMIECDMCQDWFHGSCVGVEEEKAADIDLYHCPNCEVLHGPSIMKKRRGSSKGHDTHKGKPVKTGSPTFVRELRSRTFDSSDEVILKPTGNQLTVEFLEENSFSVPILVLKKDGLGMTLPSPSFTVRDVEHYVGSDKEIDVIDVTRQADCKMKLGDFVKYYYSGKREKVLNVISLEFSDTRLSNLVETPKIVRKLSWVENLWPEECVFERPNVQKYCLMSVRDSYTDFHIDFGGTSVWYHVLKGEKIFYLIRPTNANLTLFECWSSSSNQNEMFFGDQVDKCYKCSVKQGQTLFIPTGWIHAVLTPVDCLAFGGNFLHSLNIEMQLKAYEIEKRLSTADLFRFPNFETICWYVGKHILDIFRGLRENRRHPASYLVHGGKALNLAFRAWTRKEALPDHEDEIPETVRTVQLIKDLAREIRLVEDIFQQN
B3: OC9 with T4 replaced with D-alanine (peptide)
chain: YYL[dA]HPYPSVFRTC
modifications: ends and bridges not checked
B4: OC9 V10Kme3 (peptide)
chain: YYLTHPYPS[Lys(Me3)]FRTC
modifications: ends and bridges not checked
B5: OC9, de novo cyclic peptide from mRNA display (peptide)
chain: {CH2CO}-YYLTHPYPSVFRTC
modifications: thioether N-14

For experiment [1], the target named is T1, KDM7B PHD-finger (UniProt Q9UPP1-2 1-447).
T1 chain: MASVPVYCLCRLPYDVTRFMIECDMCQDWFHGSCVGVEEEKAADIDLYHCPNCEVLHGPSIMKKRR

A further experiment deals with OC3. As to the kind of experiment: ITC.
Experiment [2] deals with T2, KDM7A (KIAA1718) PHD-finger.
T2 chain: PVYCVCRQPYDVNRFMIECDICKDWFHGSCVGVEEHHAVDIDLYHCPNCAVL
As to the kind of experiment: ITC.

Experiment [3] has as its target T1, KDM7B PHD-finger. As to the kind of experiment: ITC; His-Trx-tagged PHD.
Experiment [4] addresses KDM7A (KIAA1718) dual domain. As to the kind of experiment: BLI. A general note: BLI is a label-free optical method that tracks binding on a fibre tip over time.
Experiment [5] concerns the target T3, TAF3 PHD-finger.
T3 chain: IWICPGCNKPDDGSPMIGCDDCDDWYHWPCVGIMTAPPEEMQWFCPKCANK
Kind of experiment: BLI.

Experiment [6] concerns the target T4, KDM7C (PHF2) PHD-finger.
T4 chain: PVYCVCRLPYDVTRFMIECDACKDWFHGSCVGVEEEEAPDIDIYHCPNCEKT
Kind of experiment: BLI.

For experiment [7], the target named is T5, ING2 PHD-finger.
T5 chain: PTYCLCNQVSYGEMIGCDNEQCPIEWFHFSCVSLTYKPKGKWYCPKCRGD
Kind of experiment: BLI.

The target of experiment [8] is SPIN1 triple tudor domain. As to the kind of experiment: BLI.
SPIN1 triple tudor domain, sequence (chain, as listed by the source): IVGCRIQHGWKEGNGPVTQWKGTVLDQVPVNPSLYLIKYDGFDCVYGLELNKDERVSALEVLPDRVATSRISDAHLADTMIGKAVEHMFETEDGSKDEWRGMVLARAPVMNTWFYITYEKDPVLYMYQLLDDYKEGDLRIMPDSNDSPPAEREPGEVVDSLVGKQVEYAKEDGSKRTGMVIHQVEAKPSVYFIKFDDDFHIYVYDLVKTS
The target in a further experiment is T6, DIDO1 PHD-finger.
T6 chain: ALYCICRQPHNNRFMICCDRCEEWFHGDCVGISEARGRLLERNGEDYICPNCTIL
Kind of experiment: BLI.

Experiment [9] addresses T2, KDM7A (KIAA1718) PHD-finger. Kind of experiment: BLI.
Experiment [10] has as its target KDM7A (KIAA1718) dual domain.
In experiment [11] the target is T3, TAF3 PHD-finger.
Experiment [12] has as its target B2.
Experiment [13] deals with T4, KDM7C (PHF2) PHD-finger.
In the next experiment the target is T7, KDM5A PHD3 PHD-finger.
T7 chain: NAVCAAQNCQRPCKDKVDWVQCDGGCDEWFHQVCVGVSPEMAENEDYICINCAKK

In experiment [14] the target is T5, ING2 PHD-finger.
Experiment [15] concerns the target SPIN1 triple tudor domain.
Experiment [16] concerns the target T2, KDM7A (KIAA1718) PHD-finger.
Experiment [17] deals with KDM7A (KIAA1718) dual domain. As to the kind of experiment: ITC. In general terms: Isothermal titration calorimetry measures the heat released or taken up as one component is titrated into another.
KDM7A (KIAA1718) dual domain, sequence (chain, as listed by the source): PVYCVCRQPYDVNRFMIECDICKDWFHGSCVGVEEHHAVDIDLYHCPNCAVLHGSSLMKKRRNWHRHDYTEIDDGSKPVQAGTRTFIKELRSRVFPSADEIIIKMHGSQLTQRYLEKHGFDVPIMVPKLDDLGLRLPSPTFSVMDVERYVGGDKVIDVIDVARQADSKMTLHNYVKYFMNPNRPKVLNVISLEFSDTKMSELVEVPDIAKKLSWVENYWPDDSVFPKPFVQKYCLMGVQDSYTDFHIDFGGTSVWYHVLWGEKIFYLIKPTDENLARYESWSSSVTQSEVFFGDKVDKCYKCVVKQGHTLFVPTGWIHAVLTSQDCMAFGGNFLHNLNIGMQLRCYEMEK
Experiment [18] addresses T2, KDM7A (KIAA1718) PHD-finger. Kind of experiment: ITC.

Bridge positions count the residues as written; N and C are the ends. Square brackets hold non-standard residues; d marks the D form. Ends that are not written are not given here. Lys(Me3) = C[N+](C)(C)CCCC[C@H](N)C(=O)O Where only a bound is given, the exact number is not on record here.

Consider B1, for which the IC50 in the experiment with KDM7B PHD-finger [1] came to 20 nM.

In the experiment with OC3, B2 displayed a Kd of 163 nM.

The molecule B3 registered an IC50 with KDM7B PHD-finger [1] of 45 nM.

Take B4: the IC50 with KDM7B PHD-finger [1] was 234 nM.

B5: the dissociation constant Kd was 33 nM in experiment [2]; 8 nM with KDM7B PHD-finger [3]; 39.8 nM in experiment [4]; greater than 1000 nM with TAF3 PHD-finger [5]; 1 nM with KDM7C (PHF2) PHD-finger [6]; greater than 1000 nM in the experiment with ING2 PHD-finger [7]. Further, the Kd in [8] was greater than 1000 nM; in the experiment with DIDO1 PHD-finger, greater than 1000 nM; in [9] it was 20 nM; in experiment [17], 31.6 nM; in experiment [18], 31.6 nM. For the same molecule, the IC50 is 126 nM in experiment [10]; greater than 5010 nM with TAF3 PHD-finger [11]; 100 nM in experiment [12]; 25.1 nM with KDM7C (PHF2) PHD-finger [13]; greater than 5010 nM with KDM5A PHD3 PHD-finger; greater than 5010 nM in the experiment with ING2 PHD-finger [14]. The half-inhibitory concentration (IC50) was greater than 2000 nM in experiment [15] and 63.1 nM in experiment [16].

In general, IC50 refers to the concentration that gives 50% inhibition. A word on the Kd: it is the free concentration of one partner at which half of the binding sites on the other are occupied at equilibrium, for simple one-to-one binding. A higher Kd goes with lower affinity.
